From PMC7775388

Target: full-length SARS-CoV-2 spike protein (residues 13-1273 of UniProtKB P0DTC2) fused to green fluoresce (SARS-CoV-2) (UniProt P0DTC2)
Test: flow cytometry on cells

Chain of recombinant ACE2-Fc fusion protein (residue Gln18-Ser760 fused to human Fc) (Q9BYF1 18-740 limits assumed): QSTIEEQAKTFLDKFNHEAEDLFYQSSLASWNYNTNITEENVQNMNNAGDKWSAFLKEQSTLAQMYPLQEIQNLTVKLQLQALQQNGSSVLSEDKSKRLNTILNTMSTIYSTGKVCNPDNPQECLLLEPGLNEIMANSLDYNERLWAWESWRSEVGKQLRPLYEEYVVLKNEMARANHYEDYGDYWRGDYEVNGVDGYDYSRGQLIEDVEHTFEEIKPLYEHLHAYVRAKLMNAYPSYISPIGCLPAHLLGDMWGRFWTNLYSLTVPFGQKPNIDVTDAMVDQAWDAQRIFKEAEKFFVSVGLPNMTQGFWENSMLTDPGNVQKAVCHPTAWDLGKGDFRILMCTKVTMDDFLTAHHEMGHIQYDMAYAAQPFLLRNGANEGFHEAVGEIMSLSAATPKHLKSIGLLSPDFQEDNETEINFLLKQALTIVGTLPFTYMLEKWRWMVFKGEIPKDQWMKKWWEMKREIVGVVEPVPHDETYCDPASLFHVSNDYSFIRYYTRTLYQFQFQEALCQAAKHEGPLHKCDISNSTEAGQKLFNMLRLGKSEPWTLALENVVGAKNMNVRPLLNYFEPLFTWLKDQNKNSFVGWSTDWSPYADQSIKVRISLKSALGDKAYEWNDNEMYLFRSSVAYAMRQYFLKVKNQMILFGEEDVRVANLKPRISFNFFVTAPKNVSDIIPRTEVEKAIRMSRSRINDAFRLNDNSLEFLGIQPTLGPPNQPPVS

“recombinant ACE2-Fc fusion protein (residue Gln18-Ser760 fused to human Fc)” gave a Kd of 10.9 nM.
